Paper PMC9315428, “Distinctive in vitro ATP Hydrolysis Activity of AtVIPP1, a Chloroplastic ESCRT-III Superfamily Protein in Arabidopsis” (Frontiers in Plant Science, 2022)

Substrate: Nc1ncnc2c1ncn2[C@@H]1O[C@H](COP(=O)(O)OP(=O)(O)OP(=O)(O)O)[C@@H](O)[C@H]1O
Experiment: malachite green (PiColorLock) Pi release, Cornish-Bowden plot
Type: biochemical, Arabidopsis thaliana
Conditions: Mg2+ (2.5 mM MgCl2), pH 7.5, 37 °C, 0.5-4.0 mM ATP
Source text: malachite green (PiColorLock) Pi release, Cornish-Bowden plot on AtVIPP1-His

B1: AtVIPP1-His (Arabidopsis thaliana) (protein)
chain: MNLFERFSRVVKSYANALISSFEDPEKILEQTVIEMNSDLTKMRQATAQVLASQKQLQNKYKAAQQSSDDWYKRAQLALAKGDEDLAREALKRRKSFADNATALKTQLDQQKGVVDNLVSNTRLLESKIQEAKAKKDTLLARARTAKTATKVQEMIGTVNTSGALSAFEKMEEKVMAMESEADALTQIGTDELEGKFQMLETSSVDDDLADLKKELSGSSKKGELPPGRSTVAASTRYPFKDSEIENELNELRRKANDF
notes: mature protein, N-terminal transit peptide removed, C-terminal His tag kept; E. coli BL21(DE3)pLysS; homo-oligomer (spherical particles 30-50 nm, some rods)
Km: 3.21 mM
